5 molecules from patent US20120225464A1, “Specific Arabinose Transporter of the Plant Arabidopsis Thaliana for the Construction of Pentose-Fermenting Yeasts” (priority 2011, published 2012) can be followed below.

A value given as a limit tells only on which side of the number the result lay.

What all share (type): cell-based, S. cerevisiae
Series [1] addresses T1, Gal2 (Saccharomyces cerevisiae, UniProt P13181).
T1 construct: expressed in transfected cells; host or cells: S. cerevisiae strain MKY06 (all hexose transporters incl. gal2 deleted)
T1 sequence (P13181 1-574): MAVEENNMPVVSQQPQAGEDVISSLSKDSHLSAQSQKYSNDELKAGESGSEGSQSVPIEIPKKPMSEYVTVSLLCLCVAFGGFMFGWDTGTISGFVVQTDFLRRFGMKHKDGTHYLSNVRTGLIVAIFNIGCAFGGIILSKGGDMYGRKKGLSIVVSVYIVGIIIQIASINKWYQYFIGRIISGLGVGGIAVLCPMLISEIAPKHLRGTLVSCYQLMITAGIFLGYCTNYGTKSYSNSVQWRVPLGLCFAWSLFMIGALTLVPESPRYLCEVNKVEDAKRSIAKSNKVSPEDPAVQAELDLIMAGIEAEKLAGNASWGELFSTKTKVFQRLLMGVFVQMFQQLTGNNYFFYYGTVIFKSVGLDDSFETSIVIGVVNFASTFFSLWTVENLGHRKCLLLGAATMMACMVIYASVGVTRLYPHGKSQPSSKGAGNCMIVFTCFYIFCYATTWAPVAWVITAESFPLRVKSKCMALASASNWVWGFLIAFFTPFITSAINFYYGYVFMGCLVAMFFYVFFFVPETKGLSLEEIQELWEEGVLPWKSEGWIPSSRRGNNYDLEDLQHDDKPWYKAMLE
Put plainly: Inhibition of Gal2-mediated L-arabinose uptake by added sugar. The conditions noted are these: addition of 10 mM of the sugar. As for the experimental part:
(§1) The initial rates of sugar uptake were measured as follows: a 50-0 aliquot of a sugar solution containing (1-^3H)-labeled L-arabinose, (U-^14C) labeled O-glucose (American Radiolabeled Chemicals Inc.) or (1-^14C) labeled D-galactose (Amersham) was incubated at 30° C. and was mixed with 100 μl of yeast suspensions having the same temperature, resulting in final sugar concentrations of 10 mM L-arabinose, D-glucose and D-galactose. For determination of L-arabinose uptake kinetics 0.1, 1, 5, 10, and 50 mM L-arabinose were used. After different time intervals 10 ml of ice-cold 100 mM potassium phosphate buffer at pH 6.5 with 500 mM. D-glucose was added, and the suspension was immediately filtrated using Durapore® membrane filters (0.22 μm pore size, Millipore). The filter was washed two times with 10 ml of cold potassium phosphate buffer with 500 mM D-glucose. […] Rotiszint® eco plus (Roth) and the radioactivity measured in a scintillation counter. Uptake of radioactivity was nearly linear in time intervals up to 2 minutes. […] Dry weight was determined by filtering 10 ml of the culture through a pre-weighted nitrocellulose filter (0.45 μm pore size; Roth, Germany). […] KM and vmax values were calculated using the program GraphPad Prism 5.0.
(§2) For L-arabinose, uptake kinetics were determined by measuring L-arabinose uptake at various concentrations between 0.1 and 50 mM during 2-minute time intervals. […]

Series [2] has as its target T2, Stp2 (Arabidopsis thaliana, UniProt Q9LNV3).
T2 construct: The open reading frame (ORF) of AtStp2 was amplified and cloned behind the shortened strong HXT7 promoter; expressed in transfected cells; host or cells: S. cerevisiae strain MKY06 (all hexose transporters deleted), plasmid pTHStp2
T2 sequence (Q9LNV3 1-498): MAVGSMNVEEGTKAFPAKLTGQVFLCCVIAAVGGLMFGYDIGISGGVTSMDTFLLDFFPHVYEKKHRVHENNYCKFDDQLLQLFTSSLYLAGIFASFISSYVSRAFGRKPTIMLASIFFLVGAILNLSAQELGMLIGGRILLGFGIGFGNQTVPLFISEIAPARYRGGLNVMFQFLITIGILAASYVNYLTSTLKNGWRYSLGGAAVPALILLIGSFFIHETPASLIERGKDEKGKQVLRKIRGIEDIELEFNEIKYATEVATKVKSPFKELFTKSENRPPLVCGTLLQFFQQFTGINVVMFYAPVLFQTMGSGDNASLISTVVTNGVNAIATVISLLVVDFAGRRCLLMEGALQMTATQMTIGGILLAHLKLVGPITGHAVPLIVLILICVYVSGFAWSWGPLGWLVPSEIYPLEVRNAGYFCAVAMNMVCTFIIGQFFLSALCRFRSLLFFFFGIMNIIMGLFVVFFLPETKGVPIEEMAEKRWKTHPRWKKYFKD
In words: Inhibition of Stp2-mediated L-arabinose uptake by added sugar. As to conditions: addition of 10 mM of the sugar. As for the experimental part:
as §1, §2

Series [3] relates to strain MKY06-3P. Put plainly: Sugar consumption / fermentation analysis by HPLC in SC medium under aerobic conditions. The conditions noted are these: transporter overexpressed. As for the experimental part: (§3) Fermentation analysis of the MKY06-3P containing the plasmids p426-opt-AraT-S (A) or pTHSTp2 (B) in SC medium with 2% glucose under aerobic conditions. As controls the strain MKY06-3P was used containing the plasmids pHL125^re (positive) or p426HXT7-6HIS (negative). The strains with the various plasmids were adducted in SC medium with 2% glucose and inoculated with an OD600nm=1 in 50 ml SC medium. The incubation took place in 300 ml shaking flasks under aerobic conditions at 30° C. Samples were taken several times during the 120 hours to determine the sugar concentration via HPLC analysis.
as §3, with “arabinose” for “glucose”, “analysis. […]” for “analysis.”
The samples taken in the tests were centrifuged for 10 min at 3000 R/min, in order to pellet the yeast cells. […] The sugar concentrations were measured by means of BioLC (Dionex). […]

Series [4] concerns D-glucose uptake, strain MKY06. Put plainly: Initial rate of D-glucose uptake with radioactively labeled sugar in strain MKY06 overexpressing the transporter. The conditions noted are these: 10 mM D-glucose, 1 minute; empty-vector background subtracted. As for the experimental part: Initial rates of sugar uptake of strain MKY06 expressing Stp2 (AtStp2) or Gal2 (ScGal2). Cells were grown on D-galactose or maltose (empty vector), harvested and incubated with the radioactively labeled sugars: 10 mM L-arabinose (A), 10 mM D-galactose (B) and 10 mM D-glucose (C) for 2 minutes (L-arabinose) or 1 minute (D-galactose, D-glucose). The background values determined with cells containing the empty vector were subtracted.
as §1, with “used.” for “used. After different time intervals 10 ml of ice-cold 100 mM potassium phosphate buffer at pH 6.5 with 500 mM. D-glucose was added, and the suspension was immediately filtrated using Durapore® membrane filters (0.22 μm pore size, Millipore). The filter was washed two times with 10 ml of cold potassium phosphate buffer with 500 mM D-glucose.”, “5.0. […]” for “5.0.”

Series [5] deals with L-arabinose uptake, strain MKY06. Put plainly: L-arabinose uptake kinetics with radioactively labeled sugar in strain MKY06 overexpressing the transporter. As to conditions: L-arabinose as the substrate; 0.1-50 mM, 2-minute intervals. As for the experimental part:
The initial rates of sugar uptake were measured as follows: a 50-0 aliquot of a sugar solution containing (1-^3H)-labeled L-arabinose, (U-^14C) labeled O-glucose (American Radiolabeled Chemicals Inc.) or (1-^14C) labeled D-galactose (Amersham) was incubated at 30° C. and was mixed with 100 μl of yeast suspensions having the same temperature, resulting in final sugar concentrations of 10 mM L-arabinose, D-glucose and D-galactose. For determination of L-arabinose uptake kinetics 0.1, 1, 5, 10, and 50 mM L-arabinose were used. After different time intervals 10 ml of ice-cold 100 mM potassium phosphate buffer at pH 6.5 with 500 mM. D-glucose was added, and the suspension was immediately filtrated using Durapore® membrane filters (0.22 μm pore size, Millipore). The filter was washed two times with 10 ml of cold potassium phosphate buffer with 500 mM D-glucose. Filters were transferred to 5 ml scintillation vials containing 4.5 ml. Rotiszint® eco plus (Roth) and the radioactivity measured in a scintillation counter. Uptake of radioactivity was nearly linear in time intervals up to 2 minutes. The results shown are average values for two to three independent experiments. Dry weight was determined by filtering 10 ml of the culture through a pre-weighted nitrocellulose filter (0.45 μm pore size; Roth, Germany). The filters were washed with demineralized water, dried in a microwave oven for 20 minutes at 140 W, and weighted again. KM and vmax values were calculated using the program GraphPad Prism 5.0.
For L-arabinose, uptake kinetics were determined by measuring L-arabinose uptake at various concentrations between 0.1 and 50 mM during 2-minute time intervals. While Gal2 turned out to transport L-arabinose with low affinity and high capacity, Stp2 mediated uptake of L-arabinose with low capacity but high affinity (Table 1).

Take `O=C[C@H](O)[C@@H](O)[C@@H](O)[C@H](O)CO` [D-galactose]: the “Inhibition of L-arabinose uptake (Gal2)” value in series [1] is “nearly completely inhibited”. Further, the “Inhibition of L-arabinose uptake (Stp2)” value in series [2] is recorded as “nearly completely inhibited”.

Consider `O=C[C@H](O)[C@@H](O)[C@H](O)[C@H](O)CO` [D-glucose], for which the “Inhibition of L-arabinose uptake (Gal2)” value in series [1] is reported as “nearly completely inhibited”. Besides, the “Inhibition of L-arabinose uptake (Stp2)” value in series [2] is on record as “nearly completely inhibited”.

As for AraT, the “Glucose transport in the strain MKY06-3P” value in series [3] is reported as “small amounts of glucose”.

B1: Gal2: S. cerevisiae galactose permease Gal2, known to also transport L-arabinose (protein, UniProt P13181 1-574, looked up)
Galactose transporter: T1 sequence (P13181 1-574)
Take B1: the D-glucose uptake rate in series [4] is listed as 4.7 nmol/min/mg DM. In series [5], the Km was determined as 57 mM and the vmax is 2.2 +/− 0.26 nmol/min/mg DM.

B2: Stp2: transporter Stp2 from Arabidopsis thaliana, a protein of 498 amino acids (SEQ ID NO. 1) (protein, listed as Arabidopsis thaliana)
chain: T2 sequence (Q9LNV3 1-498)
Regarding B2, the D-glucose uptake rate in series [4] is less than 0.01 nmol/min/mg DM. Moreover, in series [5], the Km was 4.5 mM and the vmax is reported as 0.6 +/− 0.08 nmol/min/mg DM.
